Laboratory results taken from the RNAGym collection of RNA variant scans (doi:10.1073/pnas.2313332121).
Fewer inactive variants are shown than the library holds.

B1: TPR 5TU (parent)
chain: GGAUCUUCUCGAUCUAACAAAAAAGACAAAUCUGCCACAAAGCUUGAGAGCAUCUUCGGAUGCAGAGGCGGCAGCCUUCGGUGGCGCGAUAGCGCCAACGUUCUCAACUAUGACACGCAAAACGCGUGCUCCGUUGAAUGGAGUUUAUCAUG

Variants of: B1
Experiment: polymerase ribozyme fitness, log enrichment relative to wild type (log ratio); higher = more active; in vitro selection for triplet polymerase activity
In short: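 Mutant libraries for each subunit of a heterodimeric triplet polymerase ribozyme were made by PCR and then transcribed. Each library underwent one round of in vitro selection in triplicate: annealing with a biotinylated primer, the partner subunit and triplets, frozen incubation at −7 °C, gel excision of extended constructs, streptavidin-bead capture and RT-PCR. Input and output libraries were Illumina-sequenced, and only genotypes with ≥10 input reads and ≥1 read per output were kept. Fitness is the logarithm, base 2, of genotype enrichment over wild-type enrichment, computed from inverse-variance-weighted replicate averages.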

With U4G A52C G83A as the variant, how does the “polymerase ribozyme fitness (log ratio)” value read?
Its value is -2.69.

For U6C C35U G59A A66C G84U C93U A98U G100A A106C A142C, which “polymerase ribozyme fitness (log ratio)” value is on record?
The value was at most -4.2.

For U6A U15G A16U G74A U82G C95U, which “polymerase ribozyme fitness (log ratio)” value is on record?
Its value is at most -4.2.

For U4C G50C U56A G74A C87A G88U C116U, which “polymerase ribozyme fitness (log ratio)” value is on record?
The value was at most -4.2.

Which “polymerase ribozyme fitness (log ratio)” value does the source give for C5A A28G G34C G74A U82A G86A C93A A97C here?
The value was at most -4.2.

For C5U A16C G81A U82A G126C, which “polymerase ribozyme fitness (log ratio)” value is on record?
Its value is -0.899.

For C5A U9C G42A A52G A66C G74A U82A A89U C123A C129A G133U, which “polymerase ribozyme fitness (log ratio)” value is on record?
Its value is at most -4.2.

Which “polymerase ribozyme fitness (log ratio)” value does the source give for U6A A60G C76A U144C here?
The value was -0.452.

With U6C A24G U31A A52C C87U U90G G92U C93A as the variant, how does the “polymerase ribozyme fitness (log ratio)” value read?
The value was at most -4.2.

With C5U U6G C14U A20C A26U A37C A66U A120G as the variant, how does the “polymerase ribozyme fitness (log ratio)” value read?
Its value is at most -4.2.

With U6A A12G A17C G25C U55G A89G as the variant, how does the “polymerase ribozyme fitness (log ratio)” value read?
Its value is -3.61.

Which “polymerase ribozyme fitness (log ratio)” value does the source give for C5A A113U here?
Its value is -2.74.

Which “polymerase ribozyme fitness (log ratio)” value does the source give for U4G C85U here?
Its value is -0.873.

Which “polymerase ribozyme fitness (log ratio)” value does the source give for C5G A41C G46C C57G A60U G68C U135A G141A here?
The value was at most -4.2.

Which “polymerase ribozyme fitness (log ratio)” value does the source give for U4A C8U A16U A40C U53A C57U C87A A97U U145G here?
Its value is at most -4.2.

Which “polymerase ribozyme fitness (log ratio)” value does the source give for C5U C96A here?
The value was 0.48.

For U4C C10A U15G G62C A64U G80A C93A C116A U127G C131U G141U U145A, which “polymerase ribozyme fitness (log ratio)” value is on record?
Its value is at most -4.2.

For U6A A21U U31A G74A, which “polymerase ribozyme fitness (log ratio)” value is on record?
Its value is at most -4.2.

With U4G A97G C103G as the variant, how does the “polymerase ribozyme fitness (log ratio)” value read?
The value was -3.15.

For C5G A147C, which “polymerase ribozyme fitness (log ratio)” value is on record?
The value was -0.562.

For U4A C54U G92U C118U U134A, which “polymerase ribozyme fitness (log ratio)” value is on record?
The value was -3.6.

With U4G A39G A142G as the variant, how does the “polymerase ribozyme fitness (log ratio)” value read?
The value was -3.9.

For C5U C8G A12G A19U U55G C87A C96G A147C, which “polymerase ribozyme fitness (log ratio)” value is on record?
The value was at most -4.2.

Which “polymerase ribozyme fitness (log ratio)” value does the source give for U4G G11C U44G here?
Its value is at most -4.2.

With C5G A21C A29U U82A G94A G136C U151C as the variant, how does the “polymerase ribozyme fitness (log ratio)” value read?
The value was at most -4.2.

For C5A A28U, which “polymerase ribozyme fitness (log ratio)” value is on record?
Its value is -3.92.

With U4A G92A G141A as the variant, how does the “polymerase ribozyme fitness (log ratio)” value read?
The value was -3.96.

With C5U U45A A47C G62U C69U as the variant, how does the “polymerase ribozyme fitness (log ratio)” value read?
Its value is at most -4.2.

Which “polymerase ribozyme fitness (log ratio)” value does the source give for C5U C38G C57U G84U A106C here?
The value was -3.

With C5A A21C C35U G74C G128U U139G as the variant, how does the “polymerase ribozyme fitness (log ratio)” value read?
Its value is at most -4.2.

Which “polymerase ribozyme fitness (log ratio)” value does the source give for U4A G11A A28U G65A C72U G80U G84C A91C A97C A106C C118U G141U here?
Its value is at most -4.2.

Which “polymerase ribozyme fitness (log ratio)” value does the source give for C5G G25C C54A C75G G83U here?
Its value is at most -4.2.

With U6A A106G G117C A147U as the variant, how does the “polymerase ribozyme fitness (log ratio)” value read?
The value was -0.278.

For U6A A39U U101G C118G, which “polymerase ribozyme fitness (log ratio)” value is on record?
Its value is at most -4.2.

Which “polymerase ribozyme fitness (log ratio)” value does the source give for U6A U13G C96A C105U here?
The value was -2.15.

For U6A C93U, which “polymerase ribozyme fitness (log ratio)” value is on record?
Its value is -1.6.

For U6A C93G, which “polymerase ribozyme fitness (log ratio)” value is on record?
Its value is -3.92.

Which “polymerase ribozyme fitness (log ratio)” value does the source give for C5G A30C G81U A138C U144C here?
Its value is at most -4.2.

With C5G A16G A21U C93U U101G A110C C116U G124C as the variant, how does the “polymerase ribozyme fitness (log ratio)” value read?
The value was at most -4.2.

Which “polymerase ribozyme fitness (log ratio)” value does the source give for U4C G25U U61G G86U C93U G133C here?
Its value is at most -4.2.

Which “polymerase ribozyme fitness (log ratio)” value does the source give for U6A A37U G124A G126C here?
The value was -2.83.

Which “polymerase ribozyme fitness (log ratio)” value does the source give for U6C C85G here?
Its value is -2.95.

With C5G C36A G58A A73G C85U as the variant, how does the “polymerase ribozyme fitness (log ratio)” value read?
Its value is at most -4.2.

For C5A G59C C96A A98U, which “polymerase ribozyme fitness (log ratio)” value is on record?
The value was -0.127.

With C5G G48C U77A C85A G100A C103G C125A as the variant, how does the “polymerase ribozyme fitness (log ratio)” value read?
The value was at most -4.2.

For U6A A91C, which “polymerase ribozyme fitness (log ratio)” value is on record?
The value was at most -4.2.

With C5G A16G A19G A24U A37G G50C G84U A120C G133U as the variant, how does the “polymerase ribozyme fitness (log ratio)” value read?
The value was at most -4.2.

For C5U U13A A17C C27G A28U A52C C85U A113C U127A U144G, which “polymerase ribozyme fitness (log ratio)” value is on record?
Its value is at most -4.2.

With U4C A16U G83U U90C A113U U148C as the variant, how does the “polymerase ribozyme fitness (log ratio)” value read?
Its value is at most -4.2.

For U4G C10U G83U A98U C105U, which “polymerase ribozyme fitness (log ratio)” value is on record?
The value was -0.982.

With U6C A26C A28G as the variant, how does the “polymerase ribozyme fitness (log ratio)” value read?
Its value is -3.84.

Which “polymerase ribozyme fitness (log ratio)” value does the source give for U4C C43U C85U G133A G141U here?
Its value is at most -4.2.

For C5G C85A C116A, which “polymerase ribozyme fitness (log ratio)” value is on record?
The value was 0.0205.

With U4A C27U G83C G117A A122G U146A as the variant, how does the “polymerase ribozyme fitness (log ratio)” value read?
Its value is -3.14.

With U4A C8G U53G G71U A73G C79G C85G C87A G88U G92U A115G as the variant, how does the “polymerase ribozyme fitness (log ratio)” value read?
Its value is at most -4.2.

With C5A A17U U56A U127A as the variant, how does the “polymerase ribozyme fitness (log ratio)” value read?
Its value is -4.16.

For U6C C8U A17U A39G G83A U101A, which “polymerase ribozyme fitness (log ratio)” value is on record?
The value was at most -4.2.

For C5U U9G A12C U33G G58A G88A A91G G94A A113C A121C, which “polymerase ribozyme fitness (log ratio)” value is on record?
Its value is at most -4.2.

Which “polymerase ribozyme fitness (log ratio)” value does the source give for U4A A24U U31G C54U G84A here?
Its value is -1.15.

With C5A C57G C75U G86A A91C as the variant, how does the “polymerase ribozyme fitness (log ratio)” value read?
Its value is -4.01.

Which “polymerase ribozyme fitness (log ratio)” value does the source give for C5A A22U C75U C76A G88A A89C A91G C105U A119G U144G here?
The value was at most -4.2.

For U6A C14U A41U G48U, which “polymerase ribozyme fitness (log ratio)” value is on record?
Its value is -3.87.

Which “polymerase ribozyme fitness (log ratio)” value does the source give for U4G G42C C76G U90C C93G A113C here?
The value was at most -4.2.

With U4C A12U A21G G59A C85G G124U as the variant, how does the “polymerase ribozyme fitness (log ratio)” value read?
The value was -2.83.

For C5A A23G U33G A66G G83A C87U A113G G124A U127C, which “polymerase ribozyme fitness (log ratio)” value is on record?
The value was -3.78.

Which “polymerase ribozyme fitness (log ratio)” value does the source give for C5A U7G C32G A115U U146C here?
Its value is at most -4.2.

For U6A U55G U139A, which “polymerase ribozyme fitness (log ratio)” value is on record?
The value was at most -4.2.

With U4G A37U G81A C99A A106C U127G as the variant, how does the “polymerase ribozyme fitness (log ratio)” value read?
The value was at most -4.2.

Which “polymerase ribozyme fitness (log ratio)” value does the source give for U6A G50A A89U G92U A137G here?
Its value is -3.34.

With C5A C14G A22G A49C G50U G58C as the variant, how does the “polymerase ribozyme fitness (log ratio)” value read?
The value was -4.18.

Which “polymerase ribozyme fitness (log ratio)” value does the source give for U4C U6G G74C G80C G92U C103G A106U here?
Its value is at most -4.2.

With U4C C85A as the variant, how does the “polymerase ribozyme fitness (log ratio)” value read?
Its value is -1.34.

Which “polymerase ribozyme fitness (log ratio)” value does the source give for U4C G86A here?
The value was -0.918.

Which “polymerase ribozyme fitness (log ratio)” value does the source give for C5U A73G C85G here?
Its value is -0.907.

For U4G G84U A107U G140A, which “polymerase ribozyme fitness (log ratio)” value is on record?
Its value is at most -4.2.

Which “polymerase ribozyme fitness (log ratio)” value does the source give for C5G G50U G81C G92C G143A here?
The value was -2.74.

With U6A A19C U56A G83A G124C as the variant, how does the “polymerase ribozyme fitness (log ratio)” value read?
Its value is -1.45.

For C5U C85G, which “polymerase ribozyme fitness (log ratio)” value is on record?
The value was -1.7.

Which “polymerase ribozyme fitness (log ratio)” value does the source give for U6A A16C A20G G62C A91U A110U here?
Its value is at most -4.2.

With U6A C96U as the variant, how does the “polymerase ribozyme fitness (log ratio)” value read?
The value was -0.0433.

With C5U G141C as the variant, how does the “polymerase ribozyme fitness (log ratio)” value read?
Its value is -0.459.

For U4C A20U A29U G46C C54U C85U C116U, which “polymerase ribozyme fitness (log ratio)” value is on record?
The value was at most -4.2.

For U4A U55A A64C, which “polymerase ribozyme fitness (log ratio)” value is on record?
Its value is at most -4.2.
